The record followed here is patent publication US20230203142A1, “TREATMENT OF METABOLIC DISORDERS THROUGH THE TARGETING OF A NOVEL CIRCULATING HORMONE COMPLEX” (The President and Fellows of Harvard College, priority 2020, published 2023).

The target in one assay is T1, recombinant NDPK (Homo sapiens, UniProt P15531).
T1 construct: purchased Acro Biosystems NM1-H5147
Description: Recombinant kinase activity assay, NDPK (ADP-Glo/Kinase-Glo). The following applies: recombinant NDPK plus the added component. In kind it is biochemical. Here is the method:
(§1) An on-bead kinase assay was developed to measure the activity of endogenous NDPK and ADK pulled down from serum using a-Ab or c-Ab conjugated beads. Both NDPK and ADK are bi-directional kinases that will produce ATP or ADP depending on the substrates provided (FIGS. 4B-C). Kinase activity assays were performed in 384-well plates in reaction buffer (PBS with 0.1% BSA, 0.01% F-127, 5 mM MgCl2). Experiments with recombinant proteins were performed at final concentrations of 40 μg/ml for ADK and FABP4, and 20 ug/ml for NDPK, and a reaction volume of 10 μl. Antibodies were used at a final concentration of 80 ug/ml. Substrates were added in equimolar ratios depending on the kinase being assayed and the direction of the reaction in serial dose responses, with the highest concentration of 5 μM. Proteins and substrates were incubated for 1 hr at room temperature, and ADP and ATP production were monitored using ADP-Glo and Kinase-Glo kits, respectively, according the manufacturer instructions (V6930 and V6711 Promega, USA). Luminescence was quantified using a SpectraMax Paradigm plate reader 30 min after the addition of substrate. Consistent with the MS results, ADK activity, as measured by generation of ATP, was specifically observed in samples pulled down with a-Ab but not c-Ab (FIG. 5A). […] To test this possibility, the ATP and ADP generating activity of recombinant ADK was assessed in the presence of the proposed complex components.

Another assay deals with T2, Human NDPK-A (Homo sapiens, UniProt P15531).
T2 construct: purchased Acro Biosystems NM1-H5147
T2 sequence (P15531 whole entry): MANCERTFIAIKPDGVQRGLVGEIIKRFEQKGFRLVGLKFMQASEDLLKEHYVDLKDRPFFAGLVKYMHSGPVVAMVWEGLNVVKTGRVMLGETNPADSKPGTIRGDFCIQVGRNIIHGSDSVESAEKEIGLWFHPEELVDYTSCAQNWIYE
As to the kind of experiment: Microscale Thermophoresis (MST) one-to-one protein interaction with NDPK. Particulars: recombinant proteins, binding to NDPK. Here is the method:
Additionally, one-to-one recombinant protein interaction assays were performed using Microscale Thermophoresis (MST) to independently validate the interactions between each of the proposed complex components. MST is a technology for the interaction analysis of biomolecules. MST is the directed movement of particles in a microscopic temperature gradient. Any change of the hydration shell of biomolecules due to changes in their structure/conformation results in a relative change of the movement along the temperature gradient and is used to determine binding affinities. MST allows measurement of interactions directly in solution without the need of immobilization to a surface (immobilization-free technology).
To perform this technique, proteins were desalted and buffer exchanged into PBS prior to labeling. […] Experiments were conducted independently with each of NDPK and ADK labeled with each kit (i.e., experiments were performed with lysine-labeled, cysteine-labeled, and His-labeled versions of each protein to confirm the site of labeling was not influencing detected interaction). […] Concentration of labeled proteins ranged from 12 nM to 20 nM, as determined by MST quantification to obtain a fluorescence intensity of ˜350 from each capillary tube. […]

Another assay deals with primary mouse islets. Description: Glucose-stimulated insulin secretion (GSIS), mouse islets. It is filed as cell-based. Here is the method: Primary islet isolation from mice was performed as previously described (Batchuluun et al., 2018; Prentice et al., 2014) and GSIS was assessed following acute treatment with NDPK-ADK in the presence or absence of FABP4. Insulin secretion assays were performed as previously described (Prentice et al., 2014). For primary islets, 20 islets were hand-picked into 1.5 ml tubes, washed twice with Krebs Ringer Buffer (KRB) without glucose, and pre-incubated in 500 μl low glucose (LG; 2.8 mM) KRB for 1 hour at 37° C. KRB was then removed and 250 μl of fresh LG KRB added. Islets were incubated for 20 minutes at 37° C. Supernatant was collected and 250 μl high glucose (HG; 16.7 mM) KRB added. Islets were incubated for 20 minutes at 37° C. In conditions where KCl was used, HG KRB was collected, and 250 μl KC1 (16.7 mM glucose, 30 mM KCl) KRB added. Islets were incubated for 20 minutes at 37° C., and supernatant collected. Following the stimulation protocol, cells were lysed in 100 μl acid ethanol (70% ethanol, 1% HCl in water) and stored at 4° C. overnight. Samples were evaporated using a SpeedVac until dried, and resuspended in 60 μl ultrapure water. DNA was quantified by Nanodrop (ThermoFisher, USA). Insulin from supernatant was quantified using insulin HTRF (Insulin Ultrasensitive Assay kit 62IN2PEH; Cisbio, USA).

For the next assay, the target named is T3, recombinant ADK (Homo sapiens, UniProt P55263).
T3 construct: purchased Novus Biologicals or R&D Systems NBP1-44382 or 8024-AK-025
As to the kind of experiment: Recombinant kinase activity assay, ADK (Kinase-Glo). It is filed as biochemical. The following applies: recombinant ADK plus the added component. Here is the method: as §1

Another assay relates to WT NOD mice. As to the kind of experiment: Acute FABP4 administration. It is filed as in vivo, mouse. Particulars: 20 minutes post-injection, vs vehicle-injected controls. Here is the method: (§2) Given the essential role for appropriate beta cell function and insulin secretion in the pathogenesis of diabetes, the pancreata of FABP4 deficient (FABP4^−/−) mice were examined for beta cell mass and insulin content. Animal care and experimental procedures were performed with approval from animal care committees of Harvard University. All mice were housed on a 12-hour light/dark cycle with ad libitum access to chow (PicoLab 5058 LabDiet) and water. FABP4−/− and WT mice were littermates obtained from heterozygous breeding. High fat diet (HFD) fed mice were provided ad libitum access to HFD (60% kcal from fat; Research Diets Inc., D12492i) for 14 weeks beginning at 4 weeks of age. Pancreata and isolated islets were obtained from 7-8-week-old male mice. Blood was collected every other week for 6 hour fasting plasma insulin and FABP4 levels. For acute FABP4 treatment, 10 μg of human recombinant FABP4 (produced in-house) or sterile PBS was injected intraperitoneally. Blood was collected from the tail vein at 0, 10, 20, 30, 60, 120, 240- and 360-minutes post injection for measurement of blood glucose, plasma insulin, and FABP4 levels.

Another assay has as its system WT mice. Description: Acute FABP4 administration. It is filed as in vivo, mouse. The following applies: 20 minutes post-injection, vs vehicle-injected controls. Here is the method:
as §2

T1 sequence (P15531 whole entry): as above

B1: ADK: recombinant human adenosine kinase (Novus Biologicals or R&D Systems) (protein, listed as Homo sapiens)
chain: MAAAEEEPKPKKLKVEAPQALRENILFGMGNPLLDISAVVDKDFLDKYSLKPNDQILAEDKHKELFDELVKKFKVEYHAGGSTQNSIKVAQWMIQQPHKAATFFGCIGIDKFGEILKRKAAEAHVDAHYYEQNEQPTGTCAACITGDNRSLIANLAAANCYKKEKHLDLEKNWMLVEKARVCYIAGFFLTVSPESVLKVAHHASENNRIFTLNLSAPFISQFYKESLMKVMPYVDILFGNETEAATFAREQGFETKDIKEIAKKTQALPKMNSKRQRIVIFTQGRDDTIMATESEVTAFAVLDQDQKEIIDTNGAGDAFVGGFLSQLVSDKPLTECIRAGHYAASIIIRRTGCTFPEKPDFH
By Kd is commonly meant the equilibrium constant for the complex coming apart. For B1, in the assay with recombinant NDPK, the “activity of NDPK to generate ADP” value is on record as “significantly reduced” and the “capacity of NDPK to produce ATP” value is on record as “no effect”. Besides, the dissociation constant (Kd) with Human NDPK-A is approximately 1.8 nM.

B2: FABP4: human recombinant FABP4 (produced in-house) (protein)
chain: CDAFVGTWKLVSSENFDDYMKEVGVGFATRKVAGMAKPNMIISVNGDVITIKSESTFKNTEISFILGQEFDEVTADDRKVKSTITLDGGVLVHVQKWDGKSTTIKRKREDDKLVVECVMKGVTSTRVYERA
Regarding B2, in the assay with recombinant NDPK, the “activity of NDPK to generate ADP” value is reported as “not further influenced” and the “capacity of NDPK to produce ATP” value is reported as “no effect”. Besides, the GSIS result in the assay on primary mouse islets (primary / WT mouse islets) is reported as “no effect”. Moreover, in the assay on primary mouse islets (primary mouse islets, added to NDPK-ADK), the “NDPK-ADK-enhanced GSIS response” value is recorded as “significantly blunted”. Further, the “ADK activity to generate ATP” value with recombinant ADK is given as “significantly increased”. Besides, the plasma insulin result in the assay with WT NOD mice was “significant reduction”. Besides, the blood glucose levels result in the assay with WT mice was “significantly increased”.
